Test results: patent US20240059766A1 (VOYAGER THERAPEUTICS, published 2024)
Non-standard residues stand in square brackets, D forms with d. No end group written: not given here. pT = C[C@@H](OP(=O)(O)O)[C@H](N)C(=O)O

B1: VY003 (antibody, V domains shown)
VH: EVQMVESGGGLVQPGGSLTLSCAASGFTFSSYRMNWVRQAPGKGLEWVSYISSSRSAIYYADSVKGRFTISRDNAKNSLYLQMNSLRDEDTAVYYCATLGIGYWGQGTLVTVSS
VL: DIVMTQTPLSSPVTLGQPASISCRSSQSLVHSDGNTYLSWLQQRPGQPPRLLIYKISNRFSGVPDRFSGSGAGTDFTLKITRVEAEDVGIYYCMQVTQFPRTFGQGTKVEIR
B2: VY011 (antibody, V domains shown)
VH: QVQLQESGPGLVKPSETLSLTCTVSGGSISNYYWTWIRQPAGKGLEWIGRVYTSGSANYNPSLKSRVTMSVDTSKNQFSLTLSSVTAADTAVYYCARDRGLYYWGQGTLVTVSS
VL: DIVMTQTPLSSLVTLGQPASISCRSSQSLVHSDGNTYLSWLQQRPGQPPRLLIYKISKRFFGVPDRFSGSGAGTDFTLKINRVEAEDVGIYYCMQATQFPLTFGGGTKVEIK

Columns and labels:
[1] = biological target: T1, Enriched paired helical filament (ePHF; sarkosyl insoluble tau) (human, UniProt P10636 2-758, pathological (hyperphosphorylated) tau isolated from brain; sites not stated); assay: direct ELISA, coated antigen
T1 construct: aggregate isolated from AD frontal cortical tissue
T1 sequence (P10636 other isoform, or with tags, fused parts or gaps limits assumed): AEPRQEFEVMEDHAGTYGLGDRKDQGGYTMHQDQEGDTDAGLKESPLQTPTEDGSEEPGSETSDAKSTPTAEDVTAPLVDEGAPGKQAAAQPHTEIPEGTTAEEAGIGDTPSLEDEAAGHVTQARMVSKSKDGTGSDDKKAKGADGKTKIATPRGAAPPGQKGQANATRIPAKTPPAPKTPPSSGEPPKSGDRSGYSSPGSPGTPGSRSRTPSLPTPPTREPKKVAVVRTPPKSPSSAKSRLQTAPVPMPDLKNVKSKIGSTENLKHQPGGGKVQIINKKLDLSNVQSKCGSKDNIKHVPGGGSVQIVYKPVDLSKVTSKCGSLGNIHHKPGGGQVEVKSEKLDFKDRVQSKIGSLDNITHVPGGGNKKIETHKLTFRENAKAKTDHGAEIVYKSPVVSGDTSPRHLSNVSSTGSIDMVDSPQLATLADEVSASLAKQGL
Experimental: A set of recombinant human IgG1 antibodies were prepared with clone-specific variable domain pairs selected from those presented in Table 1 and human IgG1 constant domains. These candidate antibodies were analyzed for binding to ePHF and specificity for ePHF over wild type tau by direct ELISA.
For direct ePHF and wildtype tau ELISA, plates were first coated with ePHF or wild type tau. Antigen solutions were prepared in PBS and 50 μL were pipetted into each well. Plates were covered and incubated for one hour at 37° C. or overnight at 4° C. Plates were then washed and blocked by addition of 150 μl of blocking buffer to each well and incubated one hour at room temperature. Plates were then washed before addition of serially diluted candidate antibody samples prepared in blocking buffer. Detection of candidate antibody binding was carried out by washing plates and adding a solution of enzyme-labeled secondary antibody in blocking buffer to each well. Secondary antibody binding was detected by addition of substrate and spectrophotometric analysis of resulting reaction product.

iPHF = iPHF (UniProt P10636-8 2-441); assay: BLI (Octet), antibody on biosensor tip
Chain of iPHF (P10636 other isoform, or with tags, fused parts or gaps): as the sequence (P10636 other isoform, or with tags, fused parts or gaps limits assumed) above
Experimental: Anti-human tau antibodies were assessed for affinity for iPHF by Octet (ForteBio, Menlo Park, CA) analysis. A set of recombinant human IgG1 antibodies were prepared with clone-specific variable domain pairs selected from those presented in Table 1 and human IgG1 constant domains. Candidate antibodies were immobilized on biosensor tips (ForteBio) in kinetic buffer (ForteBio). Biosensor tips were then washed before introduction of a solution of iPHF in kinetic buffer for analysis of association and dissociation with candidate antibodies.

[2] = biological target: T2, AT8 peptide (amino acids 195-215 of tau) (human, phospho-peptide; the phosphorylated sites are not stated; immobilized on streptavidin biosensor tips); assay: BLI (Octet), peptide on streptavidin tip
T2 peptide: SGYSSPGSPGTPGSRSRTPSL
Experimental: Briefly, phospho-peptides were immobilized on streptavidin biosensor tips and the binding ability of each antibody was assessed using an eight-point concentration gradient.

[3] = biological target: Tau191-214 phospho-peptide (pS202) (human, pS202 (phosphoserine); SCBio-4PEG in the ELISA); assay: one point ELISA
Text: (§1) One-point ELISA was used to determine differential binding based on the individual phosphorylation patterns of each peptide. OD values (450 nm) were collected (as shown in Table 13), where a stronger positive signal is shown as a higher OD value, which is indicative of increased binding.

[4] = biological target: T3, Tau191-214 phospho-peptide (pS199) (human, pS199 (phosphoserine); SCBio-4PEG in the ELISA); assay: one point ELISA
T3 construct: also called pS199 peptide
Text: as §1

[5] = biological target: T4, SCBio-4PEG-Peptide (Tau191-214) pS199-old (human, pS199; SCBio-4PEG at the peptide as in the table head); assay: one point ELISA
T4 construct: the suffix old is not explained
T4 sequence (peptide, as listed by the source): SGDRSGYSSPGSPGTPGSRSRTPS
Text: as §1

[6] = biological target: Tau191-214 phospho-peptide (pS199/pS202) (human, pS199, pS202; SCBio-4PEG in the ELISA); assay: one point ELISA
Text: as §1

[7] = biological target: Tau191-214 phospho-peptide (pS199/pT205) (human, pS199, pT205; SCBio-4PEG in the ELISA); assay: one point ELISA
Text: as §1

[8] = biological target: Tau191-214 phospho-peptide (pT205) (human, pT205 (phosphothreonine); SCBio-4PEG in the ELISA); assay: one point ELISA
Text: as §1

[9] = biological target: T3, Tau191-214 phospho-peptide (pS199); assay: BLI
[10] = biological target: T5, AT270 peptide (pT181; Tau172-186) (human); assay: one point ELISA
T5 peptide: PAKTPPAPK[pT]PPSSG

Row | Binder | EC50 [1] [nM] | Kd (iPHF) [nM] | Kd [2] [nM] | OD450 [3] [OD450 nm] | OD450 [4] [OD450 nm] | OD450 [5] [OD450 nm] | OD450 [6] [OD450 nm] | OD450 [7] [OD450 nm] | OD450 [8] [OD450 nm] | binding result [9] | binding result [10]
1 | B1 | 0.06 | 4.6 | 0.0124 | 0.065 | 0.065 | 0.062 | 0.082 | 0.119 | 0.06 | no binding | –
2 | B2 | 0.03 | 2 | 0.0089 | 0.06 | – | – | – | – | 0.06 | – | no binding
